This data set relates to Escherichia coli TOP10. Kind of data set: shrunken log2 fold change of peptide-encoding DNA abundance (4.5 h post-induction vs induction); higher = less antimicrobial activity (less host growth inhibition). To be noted: time post-induction: 4.5 h; library: site-saturation at positions 5, 18, 19, 20.
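Note: peptides expressed intracellularly from a pBAD plasmid library in pooled LB shake-flask culture, induced with 0.3% L-arabinose, DNA abundance read by NGS, three biological replicates, DESeq2 with apeglm shrinkage.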

Turning to RRIRTRPPRLPRPRPRPMRAPRP, the “shrunken log2 fold change” value worked out at 1.

On to RRIRRRPPRLPRPRPRPFAVPRP, for which the “shrunken log2 fold change” value turned out to be 0.0874.

Turning to RRIRARPPRLPRPRPRPIVWPRP, the “shrunken log2 fold change” value was found to be 0.393.

For the sequence RRIRGRPPRLPRPRPRPSFCPRP, the “shrunken log2 fold change” value is 0.348.

In the case of RRIRYRPPRLPRPRPRPNAKPRP, the “shrunken log2 fold change” value is -0.0394.

Take RRIRDRPPRLPRPRPRPKDDPRP: the “shrunken log2 fold change” value stood at 0.0765.

For RRIRWRPPRLPRPRPRPCGFPRP, the “shrunken log2 fold change” value worked out at 0.395.

Regarding RRIRARPPRLPRPRPRPGVGPRP, the “shrunken log2 fold change” value amounted to 0.805.

For RRIRARPPRLPRPRPRPVMLPRP, the “shrunken log2 fold change” value was -0.19.

Turning to RRIRMRPPRLPRPRPRPLDKPRP, the “shrunken log2 fold change” value was determined as 1.96.

On to RRIRSRPPRLPRPRPRPKRRPRP, for which the “shrunken log2 fold change” value came to 0.33.

As for RRIRLRPPRLPRPRPRPADPPRP, the “shrunken log2 fold change” value worked out at 0.0111.

Regarding RRIRYRPPRLPRPRPRPKYEPRP, the “shrunken log2 fold change” value was -0.177.

With RRIRTRPPRLPRPRPRPDCWPRP, the “shrunken log2 fold change” value was 0.0105.

Turning to RRIRERPPRLPRPRPRPDCYPRP, the “shrunken log2 fold change” value was -0.0856.

Consider RRIRFRPPRLPRPRPRPNCKPRP, for which the “shrunken log2 fold change” value is -0.0929.

As for RRIRLRPPRLPRPRPRPPTCPRP, the “shrunken log2 fold change” value stood at 0.192.

RRIRRRPPRLPRPRPRPEANPRP: the “shrunken log2 fold change” value worked out at 0.78.

With RRIRARPPRLPRPRPRPQSKPRP, the “shrunken log2 fold change” value was 0.0474.

In the case of RRIRFRPPRLPRPRPRPSQGPRP, the “shrunken log2 fold change” value was -0.117.

As for RRIRKRPPRLPRPRPRPNHWPRP, the “shrunken log2 fold change” value was determined as 0.0915.

Regarding RRIRVRPPRLPRPRPRPTCPPRP, the “shrunken log2 fold change” value turned out to be 0.243.

On to RRIRMRPPRLPRPRPRPEPQPRP, for which the “shrunken log2 fold change” value was 2.17.

For RRIRGRPPRLPRPRPRPLRVPRP, the “shrunken log2 fold change” value came to 1.

Turning to RRIRGRPPRLPRPRPRPNFPPRP, the “shrunken log2 fold change” value is 0.193.

In the case of RRIRCRPPRLPRPRPRPPSYPRP, the “shrunken log2 fold change” value is -0.457.

With RRIRERPPRLPRPRPRPSHWPRP, the “shrunken log2 fold change” value is -0.292.

As for RRIRFRPPRLPRPRPRPGNAPRP, the “shrunken log2 fold change” value amounted to 0.0998.

For the sequence RRIRFRPPRLPRPRPRPHNHPRP, the “shrunken log2 fold change” value is -0.835.

Regarding RRIRHRPPRLPRPRPRPWGVPRP, the “shrunken log2 fold change” value is -0.141.

Take RRIRERPPRLPRPRPRPNQGPRP: the “shrunken log2 fold change” value is -0.348.

As to RRIRWRPPRLPRPRPRPFIFPRP, the “shrunken log2 fold change” value is -0.0639.

For RRIRARPPRLPRPRPRPWSEPRP, the “shrunken log2 fold change” value is 0.0573.

RRIRQRPPRLPRPRPRPATVPRP: the “shrunken log2 fold change” value is 0.239.

Turning to RRIRGRPPRLPRPRPRPAAHPRP, the “shrunken log2 fold change” value worked out at 0.807.

For RRIRQRPPRLPRPRPRPKGWPRP, the “shrunken log2 fold change” value worked out at 0.502.

Turning to RRIRERPPRLPRPRPRPERMPRP, the “shrunken log2 fold change” value is -0.0648.

Consider RRIRGRPPRLPRPRPRPMKAPRP, for which the “shrunken log2 fold change” value worked out at 0.231.

As to RRIRQRPPRLPRPRPRPQTYPRP, the “shrunken log2 fold change” value is -0.958.

Take RRIRARPPRLPRPRPRPLRHPRP: the “shrunken log2 fold change” value is 0.619.

In the case of RRIRTRPPRLPRPRPRPFYLPRP, the “shrunken log2 fold change” value is -0.522.

For RRIRRRPPRLPRPRPRPYVWPRP, the “shrunken log2 fold change” value was -0.216.

For the sequence RRIRGRPPRLPRPRPRPSHTPRP, the “shrunken log2 fold change” value is -0.102.

Consider RRIRYRPPRLPRPRPRPSWGPRP, for which the “shrunken log2 fold change” value is -0.154.

On to RRIRERPPRLPRPRPRPWTKPRP, for which the “shrunken log2 fold change” value came to 0.0475.

As for RRIRTRPPRLPRPRPRPHDIPRP, the “shrunken log2 fold change” value was determined as 2.43.

With RRIRSRPPRLPRPRPRPLYNPRP, the “shrunken log2 fold change” value was -0.344.

Consider RRIRRRPPRLPRPRPRPCMRPRP, for which the “shrunken log2 fold change” value was 0.264.

For the sequence RRIRCRPPRLPRPRPRPFRHPRP, the “shrunken log2 fold change” value was -0.143.

Consider RRIRNRPPRLPRPRPRPRDKPRP, for which the “shrunken log2 fold change” value was -0.332.

On to RRIRPRPPRLPRPRPRPPQEPRP, for which the “shrunken log2 fold change” value amounted to 0.727.

With RRIRQRPPRLPRPRPRPLRMPRP, the “shrunken log2 fold change” value was determined as 0.483.

As for RRIRIRPPRLPRPRPRPHVRPRP, the “shrunken log2 fold change” value stood at 0.031.

With RRIRTRPPRLPRPRPRPKNYPRP, the “shrunken log2 fold change” value is -0.346.

With RRIRHRPPRLPRPRPRPTNTPRP, the “shrunken log2 fold change” value is -0.384.

Regarding RRIRYRPPRLPRPRPRPWQLPRP, the “shrunken log2 fold change” value was -0.647.

Turning to RRIRFRPPRLPRPRPRPEWYPRP, the “shrunken log2 fold change” value was -0.361.

As for RRIRSRPPRLPRPRPRPHWEPRP, the “shrunken log2 fold change” value is -0.0851.

In the case of RRIRYRPPRLPRPRPRPQCIPRP, the “shrunken log2 fold change” value is -0.0693.

Turning to RRIRVRPPRLPRPRPRPQATPRP, the “shrunken log2 fold change” value was 0.271.

For the sequence RRIRRRPPRLPRPRPRPFLAPRP, the “shrunken log2 fold change” value amounted to 0.925.

Turning to RRIRNRPPRLPRPRPRPQLHPRP, the “shrunken log2 fold change” value was -0.358.

As to RRIRVRPPRLPRPRPRPRMNPRP, the “shrunken log2 fold change” value is -0.0411.

As to RRIRNRPPRLPRPRPRPDVTPRP, the “shrunken log2 fold change” value was found to be 0.216.

Consider RRIRSRPPRLPRPRPRPSKPPRP, for which the “shrunken log2 fold change” value was -0.432.

RRIRERPPRLPRPRPRPASLPRP: the “shrunken log2 fold change” value turned out to be 0.0301.

Regarding RRIRVRPPRLPRPRPRPACSPRP, the “shrunken log2 fold change” value was -0.0142.

Consider RRIRPRPPRLPRPRPRPGHIPRP, for which the “shrunken log2 fold change” value was -0.196.

Regarding RRIRQRPPRLPRPRPRPGKEPRP, the “shrunken log2 fold change” value stood at 0.00212.

For RRIRNRPPRLPRPRPRPSKGPRP, the “shrunken log2 fold change” value is -0.00183.

For the sequence RRIRNRPPRLPRPRPRPTEKPRP, the “shrunken log2 fold change” value was -0.0107.

As to RRIRHRPPRLPRPRPRPDRFPRP, the “shrunken log2 fold change” value is -0.00476.

Consider RRIRGRPPRLPRPRPRPTWIPRP, for which the “shrunken log2 fold change” value was found to be 0.25.

In the case of RRIRARPPRLPRPRPRPYTQPRP, the “shrunken log2 fold change” value was -0.593.

As to RRIRIRPPRLPRPRPRPHLEPRP, the “shrunken log2 fold change” value is -0.384.

Take RRIRNRPPRLPRPRPRPSTEPRP: the “shrunken log2 fold change” value came out at 0.118.

With RRIRKRPPRLPRPRPRPDIRPRP, the “shrunken log2 fold change” value was found to be 0.0731.

On to RRIRWRPPRLPRPRPRPHHGPRP, for which the “shrunken log2 fold change” value is -0.234.

For RRIRNRPPRLPRPRPRPTASPRP, the “shrunken log2 fold change” value turned out to be 1.61.

With RRIRERPPRLPRPRPRPIPVPRP, the “shrunken log2 fold change” value was -0.217.

With RRIRHRPPRLPRPRPRPVLMPRP, the “shrunken log2 fold change” value was -0.381.

RRIRCRPPRLPRPRPRPIWNPRP: the “shrunken log2 fold change” value is -0.343.

RRIRLRPPRLPRPRPRPKKNPRP: the “shrunken log2 fold change” value came to 0.144.

For the sequence RRIRWRPPRLPRPRPRPVRHPRP, the “shrunken log2 fold change” value was 0.245.

Regarding RRIRPRPPRLPRPRPRPMVWPRP, the “shrunken log2 fold change” value was found to be 0.212.

Turning to RRIRTRPPRLPRPRPRPLAQPRP, the “shrunken log2 fold change” value was found to be 0.143.

As for RRIRARPPRLPRPRPRPSWKPRP, the “shrunken log2 fold change” value was 0.237.

As to RRIRGRPPRLPRPRPRPGYYPRP, the “shrunken log2 fold change” value is -0.301.

For RRIRGRPPRLPRPRPRPSSSPRP, the “shrunken log2 fold change” value is -0.296.

As for RRIRGRPPRLPRPRPRPPIAPRP, the “shrunken log2 fold change” value amounted to 0.874.

As to RRIRKRPPRLPRPRPRPAEHPRP, the “shrunken log2 fold change” value is 0.12.

Turning to RRIRQRPPRLPRPRPRPQGIPRP, the “shrunken log2 fold change” value was -0.602.

As to RRIRTRPPRLPRPRPRPECRPRP, the “shrunken log2 fold change” value was 0.569.

As to RRIRWRPPRLPRPRPRPCNCPRP, the “shrunken log2 fold change” value is -0.289.

Turning to RRIRMRPPRLPRPRPRPEDQPRP, the “shrunken log2 fold change” value is 0.0267.

On to RRIRVRPPRLPRPRPRPADKPRP, for which the “shrunken log2 fold change” value is -0.0503.

With RRIRTRPPRLPRPRPRPRHRPRP, the “shrunken log2 fold change” value amounted to 0.0476.

Take RRIRCRPPRLPRPRPRPQGLPRP: the “shrunken log2 fold change” value stood at 0.161.

Consider RRIRGRPPRLPRPRPRPTWQPRP, for which the “shrunken log2 fold change” value worked out at 0.731.

For RRIRERPPRLPRPRPRPMGGPRP, the “shrunken log2 fold change” value was found to be 0.0346.

With RRIRARPPRLPRPRPRPIIIPRP, the “shrunken log2 fold change” value is -0.235.

As for RRIRPRPPRLPRPRPRPEIWPRP, the “shrunken log2 fold change” value was found to be 0.374.

For the sequence RRIRDRPPRLPRPRPRPFGPPRP, the “shrunken log2 fold change” value was -0.0754.

As to RRIRPRPPRLPRPRPRPNRGPRP, the “shrunken log2 fold change” value amounted to 0.0424.

Regarding RRIRSRPPRLPRPRPRPMILPRP, the “shrunken log2 fold change” value came out at 0.0266.

Turning to RRIRDRPPRLPRPRPRPNVRPRP, the “shrunken log2 fold change” value is -0.275.

On to RRIRQRPPRLPRPRPRPRWWPRP, for which the “shrunken log2 fold change” value was found to be 0.417.

With RRIRSRPPRLPRPRPRPLDWPRP, the “shrunken log2 fold change” value worked out at 0.262.

For RRIRHRPPRLPRPRPRPLHWPRP, the “shrunken log2 fold change” value was 0.0266.

With RRIRSRPPRLPRPRPRPPETPRP, the “shrunken log2 fold change” value was found to be 0.103.

For the sequence RRIRKRPPRLPRPRPRPRASPRP, the “shrunken log2 fold change” value is 0.675.

In the case of RRIRHRPPRLPRPRPRPMLQPRP, the “shrunken log2 fold change” value was -0.0377.

As for RRIRGRPPRLPRPRPRPRCCPRP, the “shrunken log2 fold change” value turned out to be 0.474.

Regarding RRIRCRPPRLPRPRPRPRDIPRP, the “shrunken log2 fold change” value was -0.132.

Turning to RRIRMRPPRLPRPRPRPKFIPRP, the “shrunken log2 fold change” value is -0.182.

On to RRIRYRPPRLPRPRPRPPHYPRP, for which the “shrunken log2 fold change” value is -0.686.

With RRIRWRPPRLPRPRPRPSRWPRP, the “shrunken log2 fold change” value was 0.209.

On to RRIRGRPPRLPRPRPRPCKMPRP, for which the “shrunken log2 fold change” value was -0.0103.

Consider RRIRERPPRLPRPRPRPLGQPRP, for which the “shrunken log2 fold change” value stood at 0.0127.

Take RRIRNRPPRLPRPRPRPGQIPRP: the “shrunken log2 fold change” value is 0.0192.

RRIRPRPPRLPRPRPRPPASPRP: the “shrunken log2 fold change” value turned out to be 0.559.

On to RRIRIRPPRLPRPRPRPRIYPRP, for which the “shrunken log2 fold change” value turned out to be 0.00994.

With RRIRWRPPRLPRPRPRPVKPPRP, the “shrunken log2 fold change” value was determined as 0.539.

In the case of RRIRDRPPRLPRPRPRPADKPRP, the “shrunken log2 fold change” value is -0.0463.

In the case of RRIRVRPPRLPRPRPRPNEAPRP, the “shrunken log2 fold change” value is -0.0128.

Source of the values: the supplement of paper PMC9112550, “Optimization of the antimicrobial peptide Bac7 by deep mutational scanning” (BMC Biology, 2022).
